This passage reports binding signal (normalized bound DPF2 (reference)) and fold reduction of the preferential interaction against the WT complex results from article PMC11544104.

Data set [1] relates to BAF complex, FLAG-DPF2 WT (293T) (human). Briefly: pull-down. As to conditions: histone H3K56ac (recombinant Xenopus laevis octamer).
The target of data set [2] is H3K56ac-mononucleosome assembled with 35N35 DNA (Xenopus laevis). The data set is described as follows: pull-down.

With 35N35 mononucleosome, H3K56ac, the binding signal (normalized bound DPF2 (reference)) in data set [1] was 1.

With “BAF complex containing DPF2 C330W (from UniProt Q92785;P51532)”, the fold reduction of the preferential interaction against the WT complex in data set [2] is 5 fold.

As for “BAF complex containing DPF2 R350H (from UniProt Q92785;P51532)”, the fold reduction of the preferential interaction against the WT complex in data set [2] stood at 5 fold.

Consider “BAF complex containing DPF2 W369R (from UniProt Q92785;P51532)”, for which the fold reduction of the preferential interaction against the WT complex in data set [2] was 5 fold.
